From patent publication US20080025990A1 (Eli Lilly, published 2008) come the findings set out here.

The target in experiment [1] is T1, native human IGF-IR on human tumor cells (human, UniProt P08069 31-1367).
T1 construct: whole, on cells; also called endogenous cellular IGF-IR; solubilized IGF-IR (from MCF7 lysate)
Kind of experiment: inhibition of 125I-IGF-I binding to HT-29 (colorectal) cells.

Experiment [2] concerns the target T1, native human IGF-IR on human tumor cells. The experiment in a line: cell-based or functional assay.
For experiment [3] the target is unchanged. Kind of experiment: inhibition of 125I-IGF-I binding to MCF7 cells (the 3 nM is written at Table 4). The method, then: (§1) The anti-IGF-IR antibodies were then tested for blocking of radiolabeled ligand to native IGF-IR on human tumor cells. […] MCF7 human breast cancer cells were seeded into 24 well dishes, and cultured overnight. Sub-confluent monolayers were washed 2-3 times in binding buffer (Iscove's Medium/0.1% BSA) and antibody added in binding buffer. […] The wells were then washed three times with ice-cold PBS/0.1% BSA. Monolayers were then lysed with 200 μl 0.5N NaOH and counted in a gamma counter.

Experiment [4] deals with recombinant extracellular portion of human IGF-IR (soluble IGF-IR) (human) (UniProt P08069). Kind of experiment: comparison of affinities (BIAcore, Table 3).
For experiment [5] the target is unchanged. The experiment in a line: human IGF-IR ELISA, full IgG; column head 'Binding (ED50)', concentration for 50% binding relative to saturation. In general terms: In an ELISA, binding on a coated surface is turned into a signal by an enzyme label.
Experiment [6] has as its target T1, native human IGF-IR on human tumor cells. The experiment in a line: inhibition of 125I-IGF-I binding to OV90 (ovarian) cells.
For experiment [7] the target is unchanged. The experiment in a line: inhibition of 125I-IGF-I binding to MCF7 (breast) cells. The method, then: as §1
The target in experiment [8] is recombinant extracellular portion of human IGF-IR (soluble IGF-IR) (human) (UniProt P08069). The experiment in a line: inhibition of 125I-IGF-I binding to immobilized IGF-IR, A12 against 2F8.
Experiment [9] addresses T1, native human IGF-IR on human tumor cells. Kind of experiment: inhibition of 125I-IGF-I binding to BXPC3 (pancreatic) cells.
For experiment [10] the target is unchanged. The experiment in a line: inhibition of 125I-IGF-I binding to 8226 (myeloma) cells.
The target is the same in experiment [11]. The experiment in a line: inhibition of 125I-IGF-I binding to SK-ES1 (Ewing sarcoma) cells.
For experiment [12] the target is unchanged. Kind of experiment: cell-based or functional assay. This is another data set of the same source.
In experiment [13] the target is recombinant extracellular portion of human IGF-IR (soluble IGF-IR) (human) (UniProt P08069). Kind of experiment: inhibition of 125I-IGF-I binding to immobilized human IGF-IR, full IgG; 'Blocking (EC50)'.
Experiment [14] addresses T1, native human IGF-IR on human tumor cells. The experiment in a line: cell-based or functional assay. The source holds these as a separate data set.
Experiment [15] has the same target. Kind of experiment: inhibition of 125I-IGF-I binding to HPAC (pancreatic) cells.
Experiment [16] has the same target. Kind of experiment: inhibition of 125I-IGF-I binding to T47D (breast) cells.
The target of experiment [17] is recombinant extracellular portion of human IGF-IR (soluble IGF-IR) (human) (UniProt P08069). The experiment in a line: inhibition of 125I-IGF-I binding to immobilized human IGF-IR, full IgG; 'Blocking (EC50)'; lower end of the printed range 3-6 nM.
The target is the same in experiment [18]. Kind of experiment: inhibition of 125I-IGF-I binding to immobilized human IGF-IR, full IgG; 'Blocking (EC50)'; upper end of the printed range 3-6 nM.
Experiment [19] shares this target. Kind of experiment: BIAcore 3000, soluble IGF-IR immobilized on the chip, full IgG.
Experiment [20] has the same target. Kind of experiment: BIAcore binding kinetic analysis. Background: In SPR one partner is held on a chip, and binding of the other changes the refractive index at the surface.
In experiment [21] the target is T1, native human IGF-IR on human tumor cells. The experiment in a line: inhibition of 125I-IGF-I binding to MCF7 cells. The method, then: as §1

Values joined by “and” are separate entries in the source; they are usually repeats but may differ in a detail not shown here. Identical values can stand only once. Where only a bound is given, the exact number is not on record here.

B1: antibody A12, full length human IgG1 with lambda light chain (antibody, V domains shown)
VH: EVQLVQSGAEVKKPGSSVKVSCKASGGTFSSYAISWVRQAPGQGLEWMGGIIPIFGTANYAQKFQGRVTITADKSTSTAYMELSSLRSEDTAVYYCARAPLRFLEWSTQDHYYYYYMDVWGKGTTVTVSS
VL: SSELTQDPAVSVALGQTVRITCQGDSLRSYYATWYQQKPGQAPILVIYGENKRPSGIPDRFSGSSSGNTASLTITGAQAEDEADYYCKSRDGSGQHLVFGGGTKLTVLG
notes: also called IMC-A12; mAb A12
In general, IC50 refers to the concentration that gives 50% inhibition. Usually EC50 stands for the concentration at which the effect is half-maximal. For the molecule B1, the IC50 in experiment [1] turned out to be 10 nM; in [3], 0.45 µg/mL; in experiment [6] it was 6 nM; in [7], 3 nM; in experiment [9], 20 nM; in experiment [10] it was 20 nM. In addition, the IC50 in experiment [11] was 2 nM; in [13] it was 0.6 to 1 nM; in experiment [15], 10 nM; in experiment [16], 6 nM. In [2], the “reduction in IGF-IR surface staining of MCF7 cells after 4 h with 50 nM A12 at 37 C (FACS, mean fluorescence intensity ratio)” value came out at 90%. Moreover, the fold higher affinity relative to 2F8 in experiment [4] was determined as 10 fold. Also, the EC50 in experiment [5] is 0.3 nM. The fold increase in blocking activity relative to 2F8 in [8] was over 3 fold. For the same molecule, the “surface IGF-IR staining of MCF7 cells (mean fluorescence intensity ratio) after 4 hours with A12; untreated cells 35.7, control 1” value in experiment [12] is 3.3. Also, in experiment [14], the “IC50 of inhibition of IGF-I-stimulated [3H]thymidine incorporation (mitogenesis), MCF7 breast” value came to 6 nM. Besides, the “IC50 of inhibition of mitogenesis, 8226 myeloma” value in experiment [14] was found to be 5 nM. Further, the “IC50 of inhibition of mitogenesis, BT474 breast” value in experiment [14] was found to be 5 nM. Also, the “IC50 of inhibition of mitogenesis, BXPC3 pancreatic” value in experiment [14] was found to be 2 nM. Also, the “IC50 of inhibition of mitogenesis, HT-29 colorectal” value in [14] came out at 6 nM. Also, the “IC50 of inhibition of mitogenesis, SK-ES1 Ewing sarcoma” value in experiment [14] was 10 nM. Moreover, the “IC50 of inhibition of mitogenesis, T47D breast” value in [14] came out at 7 nM.

B2: antibody 2F8, full length human IgG1 with lambda light chain (antibody, V domains shown)
VH: B1 VH
VL: SSELTQDPAVSVALGQTVRITCQGDSLRSYYASWYQQKPGQAPVLVIYGKNNRPSGIPDRFSGSSSGNTASLTITGAQAEDEADYYCNSRDNSDNRLIFGGGTKLTVLS
notes: Tested as full IgG1 (human gamma 1 constant region) with full-length lambda light chain; also called IMC-2F8; 2F8 IgG
A word on the Kd: it is a measure of binding affinity in units of concentration. As for B2, the IC50 in [17] was over 3 nM; in [18] it was under 6 nM; in [21], 30 nM and 4.5 µg/mL. Further, the Kd in experiment [19] is 0.65 nM; in experiment [20] it was 0.5 to 1 nM. In addition, the EC50 in [5] was determined as 2 nM.
